Publication PMC12418378, “Intrinsically disordered region of Clr4/Suv39 regulates its enzymatic activity and ensures heterochromatin spreading” (Nucleic Acids Research, 2025)

B1: GST-Clr4-N3 (domain or fragment, S. pombe, UniProt O60016 1-126, looked up)
chain: MSPKQEEYEVERIVDEKLDRNGAVKLYRIRWLNYSSRSDTWEPPENLSGCSAVLAEWKRRKRRLKGSNSDSDSPHHASNPHPNSRQKHQHQTSKSVPRSQRFSRELNVKKENKKVFSSQTTKRQSR
notes: Clr4, S. pombe, residues 1-126; source: E. coli BL21 (DE3), purified (Glutathione Sepharose 4B, anion exchange SOURCE 15Q)
B2: GST-fused Clr4 N-terminus (GST-Clr4-N, amino acids 1-191) (domain or fragment, S. pombe, UniProt O60016 1-191, looked up)
chain: MSPKQEEYEVERIVDEKLDRNGAVKLYRIRWLNYSSRSDTWEPPENLSGCSAVLAEWKRRKRRLKGSNSDSDSPHHASNPHPNSRQKHQHQTSKSVPRSQRFSRELNVKKENKKVFSSQTTKRQSRKQSTALTTNDTSIILDDSLHTNSKKLGKTRNEVKEESQKRELVSNSIKEATSPKTSSILTKPRNP
notes: Clr4, S. pombe, N-terminus comprising the CD and IDR, amino acids 1-191; cloned into pGEX6P-3; also called wild-type GST-Clr4-N; GST-Clr4-N2 (label worked out); source: E. coli BL21 (DE3), purified (Glutathione Sepharose 4B, anion exchange SOURCE 15Q)

Key:
Experiment in all cases: pull-down; GST-fused Clr4 (0.2 nmol) on Glutathione Magnetic Agarose Beads, 0.2 nmol MBP-fused Clr4 in 200 μl of 10 mM Tris-HCl pH 7.5, 150 mM NaCl, 0.1 mM EDTA, 0.1% Triton X-100, 4°C, 2 h; SDS-PAGE and CBB staining; also at 0 mM NaCl and with pericentromeric RNA added
Conditions in all cases: both partners purified
[1] = target: T1, MBP-fused catalytic domain of Clr4 (MBP-Clr4-C, amino acids 192-490) (S. pombe, UniProt O60016 192-490)
T1 construct: Clr4, S. pombe, C-terminal catalytic domain, amino acids 192-490; cloned into pMALc2; source: E. coli BL21 (DE3), purified (Amylose Resin, dialysed)
T1 sequence (O60016 192-490): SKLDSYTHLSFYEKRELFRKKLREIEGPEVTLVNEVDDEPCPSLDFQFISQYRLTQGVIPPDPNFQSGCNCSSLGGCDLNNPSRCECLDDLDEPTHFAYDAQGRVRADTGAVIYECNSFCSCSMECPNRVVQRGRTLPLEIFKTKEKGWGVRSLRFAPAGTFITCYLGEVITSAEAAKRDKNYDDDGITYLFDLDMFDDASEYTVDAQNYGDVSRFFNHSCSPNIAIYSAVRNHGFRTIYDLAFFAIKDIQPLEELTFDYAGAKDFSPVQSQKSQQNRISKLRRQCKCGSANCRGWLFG

[2] = target: T2, MBP-Clr4-C 472–475A (S. pombe, UniProt O60016 192-490, 472–475A)
T2 construct: source: E. coli BL21 (DE3), purified (Amylose Resin, dialysed)
T2 sequence (O60016 other isoform, or with tags, fused parts or gaps 472–475A | 472–475A): as the sequence (O60016 192-490) above, with K281A, L282A, R283A, R284A counted along it

[3] = target: T3, MBP-Clr4-C 472–475E (S. pombe, UniProt O60016 192-490, 472–475E)
T3 construct: source: E. coli BL21 (DE3), purified (Amylose Resin, dialysed)
T3 sequence (O60016 other isoform, or with tags, fused parts or gaps 472–475E | 472–475E): as the sequence (O60016 192-490) above, with K281E, L282E, R283E, R284E counted along it

Row | Binder | binding result [1] | binding result [2] | binding result [3]
1 | B1 | binds | – | –
2 | B2 | binds | binds | binds
